Experimental data published in a protein production outcome set (Wang et al. 2014).

Test: label from the status in PepcDB records

Sequence | protein production
MNDILQLTIVLIASLIATLVSRRLKIPAVVGQMLVGILIAPSVLGLVHSGHVLEVMSEIGVILLMFLAGIESDLTVLKKNFKASMLVAVGGVIVPLIAFGLVAFGFGYGISTSFFYGIVFAATSVSITVEVLQEYGKLSTRAGSIILGAAVVDDILAVLILSIFTSFKNGGSGSHLFIQFLLELLFFAFLFLVHKLIPRFWKFVQKLPIANKNTIVALIICLGLSLLADSVGMSAVIGSFFAGLAISQTEVSHKIEEYTSAIGYVIFIPVFFVLIAISVQFDSLIHHPWIILLFTFLAILTKFIPAYFVGKASKLSTGESMLIGTGMISRGEMALIVAQIGLTSAIITDEVYSELVIVIILATVLAPFLIKMVLKKYDN | failed
THANIQGLVKHVDYMAFSDQDTFLSVSNYAFDAFTFDFYASMLNAARLIIADEHTLLDTERLTDLILQENVNVMFATTALFNLLTDAGEDWMKGLRCILFGGERASVPHVRKALRIMGPGKLINCYGPTEGTVFATAHVVHDLPDSISSLPIGKPISN | failed
MDVAGDEAGGTAGARDRVADRAAGRAVALGAIALLVAGALEAWAVLGGLEPARFWDTPSYLHDAGHLARGELPPLGLRMPGYPAFVALVGGRGPDLGRVAGAQAALWVASVVLAYALVRRLTGSLAAALAAGLAALSFVDLLFMAVTIYSETLCLALVCGAALATVAAFGGRTRAAVAGAGLLWAAAALVRPIFLASAGVYLLAALLLAARRALARRDVALAWAAVAAVVLAMASLNLARAGRFEFSPGAGLSLLNHVGHPAVYRHLPPDQAPIREVYERLAAEQGREWIGWWRAVGPLAQVVAPELAEAAGRLEVTAAEPVAERVALRALAAVPGGWLRVWADAAEQLLGRFALQLGWSARPDGPPQWPPGAWQHRAARDAEAAWRVGMPWLSAAALLLPPLALWLRARRRRRGDDVPGPAGAGAALATLWAIAGVNAGLSPALEPWAGQMRYRFPIQHLLLGLAIGAAVLAARALRPARGLAGAGSPAPGAGAARRT | failed
MKRGNEENNHKTSSSSSTQRLSRRKISAGEKSGNVNIPLDLTVEILKKLPAKSLLRFQCVSKQWLSIISSRRDFIDSIVTRSLTQPPPRDIKLIFHHQVLYPGPHFFIFSSTYPQNTDKESLTTRASSYHYVRGLICCWSHCPTTVDIYNPTTRQYYTVPDTNRYQYIETCFFGYDPVENQYKVMVLPKYYMEESPCQVFTVGDPIEKPWRDIQGIGVHFLLKDAVCINGVIYYQATNEYGSTYFLVSFDVRSEKFNHVKAPKILTDHPCTLINYQGKLGLIMCCKKGLEIWVMEDAEKKQD | failed
MARPRDRQKLDAVKVVETLDNLHARVSERFPASGLAMVCARLADTGRQTAARARRIGRPYLLLRALVVLIIVGGVALEFALAWRLDWSAALRAREGFDLAQGLEAAINLALLSGAAAWFLSSLERRWKQQRVQVALHELRSFCHVIDMHQLTKDPSVILGPRTRHSPPREMSNFQLSRYLDYCAEMLALTAKLAALYAGETDDPVIIAAVNDIETLASDLGRKIWQKIMILGQLNEAAAAQA | failed
MLVNRIISATVAGLVAVVIGFASSVALIYQTVINLGGDASLASSWILTLGLSMGITSIALSFYYRVPILIAWSTPGAALLIANTQNFNLNEAIAGFMFSALLIFLCGITGWFEKLINKLPFQLASAMLGGILVNFGIDVFNQMNKAPLLVIVMFFTYLVCRQLMPKFTMLFVLIISVVLAWQLKLMTFTAFSWQLSEFTYISPEFNMSAVLGIGIPLFLVTMAAQNLPGIAVLKAHNYKAPVSSILSVTGFVNMLAAPFGGYAINLAAITAAICMTKDVDKDPKKRYWAGISGGGFYILMAISAGYLMQAFASLPNALIYSLAGMALFTTINSSIQQALSDDKMSEAAIITFLVTASNLSLWDISSVLWGLIAGSITLMTQSLLNRSNDKLC | failed
MSLTPYEPFRHLDQMRREFDRFFPDFPIDLPNRHLTLSPKMDVHETDHEVILECDIPGLESKEDLQIDVEPRSVRIEGRIKRSKEVHDERFYRREREIGHFRRVVPLPAEVAEDDIRAAYRNGVLEVRMRKRLDDRRRTIDVEFHLEHHHHHH | not failed
MNEIHQPLARRVWRSNVDEEMARMAECLKRFPLIAFDTEYPGIIFRTYFDSSSDECYRAMKGNVENTKLIQCGFTLFNAKGEIGGVWEINFSNFGDPSDTRNELSIEFLRRHGLDLQKIRDEGVDMFGYGFFPKLMTVFRSQKHVEFVTFQGAYDFAYFLSILNHGKLPETHGEFATEVVKVFGQVYDTKVMAGFCEGLGEHLGLSKLAQLLQITRVGRAHHAGSDSLMTALVFIKLKHVYEDSRFARGLIYGIGKSNLVAAPAPAPVPEPTLPLMCQQNVASYPVFHNGYVQNYEQPQLVSYDPSGAPWAFCNATGTYVQLTHLPASTFAYPSQTPSATVDYLGPVPNYYNNNACYVVE | failed
